Biological target: the molecule itself
Experiment: negative-stain electron microscopy

B1: Mod5 (enzyme, S. cerevisiae, UniProt P07884 1-428, looked up)
chain: MLKGPLKGCLNMSKKVIVIAGTTGVGKSQLSIQLAQKFNGEVINSDSMQVYKDIPIITNKHPLQEREGIPHHVMNHVDWSEEYYSHRFETECMNAIEDIHRRGKIPIVVGGTHYYLQTLFNKRVDTKSSERKLTRKQLDILESTDPDVIYNTLVKCDPDIATKYHPNDYRRVQRMLEIYYKTGKKPSETFNEQKITLKFDTLFLWLYSKPEPLFQRLDDRVDDMLERGALQEIKQLYEYYSQNKFTPEQCENGVWQVIGFKEFLPWLTGKTDDNTVKLEDCIERMKTRTRQYAKRQVKWIKKMLIPDIKGDIYLLDATDLSQWDTNASQRAIAISNDFISNRPIKQERAPKALEELLSKGETTMKKLDDWTHYTCNVCRNADGKNVVAIGEKYWKIHLGSRRHKSNLKRNTRQADFEKWKINKKETVE
B1: binds.

From article PMC5468478 (FEBS letters, 2017)
